From patent US20120171699A1 (Merck KGaA, published 2012)
One block for each molecule: values may come before it.

How the values were obtained:
[1] = target: T1, integrin αvβ5 on cells (human, UniProt P06756 31-1048; P18084 24-799); experiment: live cell flow cytometry on HUVEC, 10 µg/ml antibody; relative to second layer alone
T1 construct: whole, on cells; Endogenous integrin of live cells (FACS) or of FFPE cells and xenografts (IHC)

[2] = target: T1, integrin αvβ5 on cells; experiment: live cell flow cytometry on HT-29, 10 µg/ml antibody; relative to second layer alone
[3] = target: T1, integrin αvβ5 on cells; experiment: live cell flow cytometry on M24Met, 10 µg/ml antibody; relative to second layer alone
[4] = target: T1, integrin αvβ5 on cells; experiment: live cell flow cytometry on M21, 10 µg/ml antibody; relative to second layer alone
[5] = target: T1, integrin αvβ5 on cells; experiment: live cell flow cytometry on A549, 10 µg/ml antibody; relative to second layer alone
[6] = target: integrin β1 chain on cells (UniProt P05556); experiment: live cell flow cytometry on M21-Gpiib, 10 µg/ml antibody; relative to second layer alone
Chain of integrin β1 chain on cells (P05556 21-798 limits assumed): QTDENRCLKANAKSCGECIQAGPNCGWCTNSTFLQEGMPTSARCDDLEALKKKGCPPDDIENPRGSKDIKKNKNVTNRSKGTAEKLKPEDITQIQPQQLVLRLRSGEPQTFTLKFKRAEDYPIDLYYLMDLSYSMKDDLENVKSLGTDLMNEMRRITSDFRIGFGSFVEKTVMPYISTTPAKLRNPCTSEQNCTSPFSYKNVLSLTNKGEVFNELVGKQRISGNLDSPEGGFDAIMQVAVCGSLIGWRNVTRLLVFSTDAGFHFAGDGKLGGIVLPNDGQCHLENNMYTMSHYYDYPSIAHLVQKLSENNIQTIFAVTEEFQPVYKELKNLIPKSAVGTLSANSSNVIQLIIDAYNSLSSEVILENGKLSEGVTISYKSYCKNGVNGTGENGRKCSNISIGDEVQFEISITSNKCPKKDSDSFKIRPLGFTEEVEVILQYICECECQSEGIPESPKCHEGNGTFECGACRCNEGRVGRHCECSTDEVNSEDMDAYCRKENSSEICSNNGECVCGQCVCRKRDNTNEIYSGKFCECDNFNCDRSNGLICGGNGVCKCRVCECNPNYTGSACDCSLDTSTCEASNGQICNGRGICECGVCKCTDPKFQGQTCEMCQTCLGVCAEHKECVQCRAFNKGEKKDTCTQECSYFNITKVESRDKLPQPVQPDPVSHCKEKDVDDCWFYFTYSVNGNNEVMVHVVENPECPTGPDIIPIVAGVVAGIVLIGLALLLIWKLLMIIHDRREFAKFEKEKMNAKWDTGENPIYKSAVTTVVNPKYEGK

[7] = target: integrin β1 chain on cells (UniProt P05556); experiment: live cell flow cytometry on HT-29, 10 µg/ml antibody; relative to second layer alone
[8] = target: integrin β1 chain on cells (UniProt P05556); experiment: live cell flow cytometry on M24Met, 10 µg/ml antibody; relative to second layer alone
[9] = target: integrin β1 chain on cells (UniProt P05556); experiment: live cell flow cytometry on M21-L, 10 µg/ml antibody; relative to second layer alone
[10] = target: integrin β1 chain on cells (UniProt P05556); experiment: live cell flow cytometry on M21, 10 µg/ml antibody; relative to second layer alone
[11] = target: integrin β1 chain on cells (UniProt P05556); experiment: live cell flow cytometry on A549, 10 µg/ml antibody; relative to second layer alone
[12] = target: integrin β1 chain on cells (UniProt P05556); experiment: live cell flow cytometry on HUVEC, 10 µg/ml antibody; relative to second layer alone
[13] = target: T2, full length human gpiibiiia purified from platelets (human, UniProt P08514 32-1039; P05106 27-788); experiment: ELISA, integrin coated at 1 µg/ml
T2 construct: mature; Extracted from outdated human platelets with octylglucoside; also called intact αiibβ3; full length purified platelet gpiibiiia
Procedure: (§1) Recombinant integrins (1 μg/ml) were coated on microtiter plates by adsorption (4° C.; 16 h) from coating buffer (150 mM NaCl; 1 mM CaCl₂; 1 mM MgCl₂; 10 μM MnCl₂; 50 mM Tris-Cl; pH 7.5). The plates were washed (wash buffer: 0.5% BSA; 0.05% Tween 20 in PBS), blocked (1 h; 4° C.; 5% BSA in PBS), and incubated with primary antibodies serially diluted in wash buffer (1 h; 37° C.). After washing, secondary detection antibody (goat-anti-rabbit HRP; 1:5000) was added (1 h; 37° C.), followed by washing and detection using tetramethyl-benzidine (100 μg/ml) in citrate-phosphate buffer (pH 5.0), development with sulphuric acid, and reading against a reagent blank at 450 nm.

[14] = target: T3, recombinant human integrin αvβ3 extracellular domain (DTM-αvβ3) (human, UniProt P06756 31-992); experiment: ELISA, integrin coated at 1 µg/ml
T3 construct: extracellular domain; Heterodimer made in High Five insect cells with baculovirus; also called Human αvβ3 ECD
Procedure: as §1

[15] = target: T4, recombinant human integrin αvβ5 extracellular domain (DTM-αvβ5) (human, UniProt P06756 31-992); experiment: ELISA, hybridoma supernatants on the recombinant αvβ5 extracellular domain (FIG. 10)
T4 construct: extracellular domain; Heterodimer made in High Five insect cells; also called Human αvβ5 ECD

[16] = target: T5, integrin αiibβ3 on M21-gpiib melanoma cells (UniProt P08514 32-1039; P05106 27-788); experiment: live cell flow cytometry on M21-Gpiib, 10 µg/ml antibody; relative to second layer alone
T5 construct: whole, on cells
Procedure: (§2) Cells in log growth were harvested using trypsin (0.5 μg/ml)/EDTA (0.2 μg/ml), washed in FACS buffer (PBS plus 0.9 mM CaCl₂; 0.5 mM MgCl₂; 0.5% w/v BSA), and incubated with anti-integrin antibodies (60 min; 4° C.; 10 μg/ml in FACS buffer). […] Cells were analyzed on a FACScan (Becton-Dickinson) and the mean intensity fluorescence (MIF) was normalized to the MIF of the negative control (cells stained with PI and secondary labeled antibody, without primary antibody).
(§3) The RabMabs were assessed in FACS compared to standard well characterized murine monoclonal antibodies.

[17] = target: T3, recombinant human integrin αvβ3 …; experiment: ELISA, hybridoma supernatants on recombinant αvβ3 against αvβ5 extracellular domains (FIG. 10)
[18] = target: T2, full length human gpiibiiia purified …; experiment: ELISA, integrin coated at 1 µg/ml, antibody serially diluted
Procedure: as §1

[19] = target: T3, recombinant human integrin αvβ3 …; experiment: as above
Procedure: as §1

[20] = target: T4, recombinant human integrin αvβ5 …; experiment: as above
Procedure: as §1

[21] = target: T6, integrin αvβ3 on cells (human, UniProt P06756 31-1048; P05106 27-788); experiment: live cell flow cytometry on HUVEC, 10 µg/ml antibody; relative to second layer alone
T6 construct: whole, on cells; Endogenous integrin of live cells (FACS) or of formalin fixed paraffin embedded cells and xenografts (IHC); the cell line is named under assay; also called αvβ3 complex
Procedure: as §2, §3

[22] = target: T6, integrin αvβ3 on cells; experiment: live cell flow cytometry on M24Met, 10 µg/ml antibody; relative to second layer alone
Procedure: as §2, §3

[23] = target: T6, integrin αvβ3 on cells; experiment: live cell flow cytometry on M21, 10 µg/ml antibody; relative to second layer alone
Procedure: as §2, §3

[24] = target: T7, integrin αv chain on cells (human, UniProt P06756 31-1048); experiment: live cell flow cytometry on M24Met, 10 µg/ml antibody; relative to second layer alone
T7 construct: whole, on cells; Endogenous αv of live cells (FACS) or FFPE cells and xenografts (IHC); also called Human αv; αv-integrin
Procedure: as §2, §3

[25] = target: T7, integrin αv chain on cells; experiment: live cell flow cytometry on M21, 10 µg/ml antibody; relative to second layer alone
Procedure: as §2, §3

[26] = target: T7, integrin αv chain on cells; experiment: live cell flow cytometry on HUVEC, 10 µg/ml antibody; relative to second layer alone
Procedure: as §2, §3

[27] = target: recombinant human integrin αvβ6 extracellular domain (DTM-αvβ6) (human) (UniProt P18564); experiment: ELISA, integrin coated at 1 µg/ml, antibody serially diluted
[28] = target: T5, integrin αiibβ3 on M21-gpiib melanoma …; experiment: live cell flow cytometry on M21-gpiib melanoma cells
Procedure: as §2, §3

[29] = target: T8, recombinant human integrin αvβ8 extracellular domain (DTM-αvβ8) (human, UniProt P06756 31-992); experiment: ELISA, integrin coated at 1 µg/ml, antibody serially diluted
T8 construct: extracellular domain; Heterodimer made in High Five insect cells; also called Human αvβ8 ECD
Procedure: as §1

Molecule: P4C10 (antibody)
- rMIF [6]: 10.8
- rMIF [7]: 14.5
- rMIF [8]: 14
- rMIF [9]: 12.1
- rMIF [10]: 7.2
- rMIF [11]: 7.5
- rMIF [12]: 38.9

B2: EM22703 (antibody, V domains shown)
VH: QSVKESEGGLFKPTDTLILTCTVSGFSLSSYGVSWVRQAPGNGLEYIGSISTTGITYYASWAKSRSTITRNTNLYTVTLKMTGLTAADTATYFCARGFPGHLRKPSDIWGPGTLVTVSA
VL: AQVLTQTPSSVSAAVGGTVSISCQSSESVYADIALSWFQQKPGQPPKLLIYGASTLASGVPSRFSGSGSGTEFTLTISDVQCDAAATYYCAGDYGAGTEPNLFGGGTEVVVSG
notes: Rabbit monoclonal; Hybridoma and recombinant forms are kept as one molecule
- rMIF [21]: 12.4
- rMIF [16]: 56
- rMIF [22]: 8.1
- rMIF [23]: 17.6
- IC50 [18]: 0.85 ng/mL
- IC50 [19]: 1.4 ng/mL

B5: EM01309 (antibody, V domains shown)
VH: QSVEESGGRLVTPGTSLTLTCTVSGIDLTSNSLSWVRQAPGKGLEWIGAISSRATTYFAAWAKGRFTISRTSTTVDLRITSLTASDTATYFCGKFNLWGQGTLVTVSS
VL: AQVLTQTPSSVSAAVGGTVTINCQASQSVASNNALAWFQQKPGQPPKLLIYYASTLASGVPSRFKGSGSGTQFTLTISDLECADAATYYCLGGYDCRGTDCNVFGGGTEVVVKG
notes: Rabbit IgG monoclonal; Hybridoma and recombinant forms are kept as one molecule; also called E3875-013-9; E3875-13-9
- rMIF [26]: 28.8
- IC50 [27]: 4.9 ng/mL
- rMIF [16]: 1
- binding result [28]: no binding (tested: 10 µg/ml)
- rMIF [24]: 2.5
- rMIF [25]: 1.3
- IC50 [29]: 4.1 ng/mL
- IC50 [19]: 4.7 ng/mL
- IC50 [20]: 5.6 ng/mL

Results, then the molecule that gave them:

- rMIF [1]: 2.7
- rMIF [2]: 3.2
- rMIF [3]: 3.8
- rMIF [4]: 3.8
- rMIF [5]: 3.6
Molecule: P1F6 (antibody)

- rMIF [1]: 33.9
- cross-reactivity, fold in IC50 against the immunogen [13]: ~100 fold
- cross-reactivity, fold in IC50 against the immunogen [14]: ~100 fold
- EC50 [15]: 0.05 nM
- rMIF [16]: 1.9
- rMIF [3]: 40.1
- factor in apparent Kd, αvβ5 over αvβ3 [17]: > 100 fold
- rMIF [4]: 7.2
- IC50 [18]: ~400 ng/mL
- IC50 [19]: ~450 ng/mL
- IC50 [20]: 5.6 ng/mL
B1: EM09902 (antibody, V domains shown)
VH: QEQLEESGGGLVQPEGSLTLTCTVSGFPLRNVWISWVRQAPGKGLEWIGCIYTGRDWPYYASWAKGRFTISKSSSTTVTLQMTSLTATDTATYFCARIVYGGAGYRLWGPGTLVTVSS
VL: ALVMTQTPPSVEAAVGGTVTINCQASQDIGSDLAWYQQKPGQPPKLLIYSASSLASGVPSRFKASGSGTQFTLTISDVQCDDAATYSCAGYKSYSDDGHGFGGGTEVVVKG
notes: Rabbit monoclonal; Hybridoma and recombinant forms are kept as one molecule; also called E3536-99-1; E3536-99-2

- rMIF [24]: 7.8
- rMIF [25]: 9.3
B3: 17E6 (antibody, V domains shown)
VH: QVQLQQSGAELAEPGASVKMSCKASGYTFSSFWMHWVKQRPGQGLEWIGYINPRSGYTECNEIFRDKATMTADTSSSTAYMQLSGLTSEDSAVYYCASFLGRGAMDYWGQGTSVTVSS
VL: DIQMTQTTSSLSASLGDRVIISCRASQDISNYLSWYQQKPDGTVKLLIFYTSKLHSGVPSRFSGSGSGTDYSLTISNLDQEDIATYFCQQGNTFPYTFGGGTKVEMR

- rMIF [21]: 10.7
- rMIF [22]: 4.9
- rMIF [23]: 9.1
B4: LM609 (antibody, V domains shown)
VH: EVQLVESGGGLVKPGRSLRLSCAASGFAFSSYDMSWVRQIPEKRLEWVAKVSSGGGSTYYLDTVQGRFTISRDNAKNTLYLQMSSLNSEDTAMYYCARHNYGSFAYWGQGTLVTVSA
VL: DIVLTQSPATLSVTPGDSVSLSCQASQSISNHLHWYQQKSHESPRLLIKYRSQSISGIPSRFSGSGSGTDFALSINSVETEDFGMYFCQQSGSWPHTFGGGTKLEIK
